Reference: patent US20230295348A1 (NOVIMMUNE, published 2023)

T1: human recombinant IL-2Rγ (human, UniProt P31785 23-262, limits assumed)
T1 construct: Biotinylated and captured on streptavidin plates in the ELISA; also called IL-2Rg; IL2Rg
T1 sequence (looked up): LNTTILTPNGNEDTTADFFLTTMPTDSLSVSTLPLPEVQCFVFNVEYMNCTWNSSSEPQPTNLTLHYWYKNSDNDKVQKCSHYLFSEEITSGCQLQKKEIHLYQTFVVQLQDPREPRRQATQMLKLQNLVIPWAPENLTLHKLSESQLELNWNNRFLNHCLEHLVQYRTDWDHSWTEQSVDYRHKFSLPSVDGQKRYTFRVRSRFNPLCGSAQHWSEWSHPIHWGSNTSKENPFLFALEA


Experiments:
human recombinant IL-2Rγ = molecular target: T1, human recombinant IL-2Rγ; assay: direct ELISA, biotinylated recombinant protein on streptavidin plates
human recombinant HER2 = molecular target: T2, human recombinant HER2 (human, UniProt P04626 23-652); assay: as above
T2 construct: Biotinylated and captured on streptavidin plates in the ELISA; also called human epidermal growth factor receptor 2

Binder	binding result (human recombinant IL-2Rγ)	binding result (human recombinant HER2)
AM5N2-19 (bispecific antibody, human IgG1, kappa, lambda, L234A L235A, κλ-body: common heavy chain, kappa anti-IL2Rγ light chain (AM5), lambda anti-HER2 light chain (N2-19); also called AM5N2-19/N) heavy: not shown light 1: not shown light 2: QSVLTQPPSVSGAPGQRVTISCTGSSSNIENTHTVHWYQQLPGTAPKLLIYDASIRPSGVPDRFSGSKSGTSASLAITGLQAEDEADYYCQSYDWLRGAQVFGGGTKLTVLGQPKAAPSVTLFPPSSEELQANKATLVCLISDFYPGAVTVAWKADSSPVKAGVETTTPSKQSNNKYAASSYLSLTPEQWKSHRSYSCQVTHEGSTVEKTVAPTECS	binds	binds
AM8N2-19 (bispecific antibody, human IgG1, kappa, lambda, L234A L235A, κλ-body: common heavy chain, kappa anti-IL2Rγ light chain (AM8), lambda anti-HER2 light chain (N2-19); also called AM8N2-19/N) heavy: not shown light 1: EIVLTQSPGTLSLSPGERATLSCRASQDVATRGLAWYQQKPGQAPRLLIYGASSRATGIPDRFSGSGSGTDFTLTISRLEPEDFAVYYCQQYELEHPATFGQGTKVEIKRTVAAPSVFIFPPSDEQLKSGTASVVCLLNNFYPREAKVQWKVDNALQSGNSQESVTEQDSKDSTYSLSSTLTLSKADYEKHKVYACEVTHQGLSSPVTKSFNRGEC light 2: QSVLTQPPSVSGAPGQRVTISCTGSSSNIENTHTVHWYQQLPGTAPKLLIYDASIRPSGVPDRFSGSKSGTSASLAITGLQAEDEADYYCQSYDWLRGAQVFGGGTKLTVLGQPKAAPSVTLFPPSSEELQANKATLVCLISDFYPGAVTVAWKADSSPVKAGVETTTPSKQSNNKYAASSYLSLTPEQWKSHRSYSCQVTHEGSTVEKTVAPTECS	binds	binds
AM3N2-19 (bispecific antibody, human IgG1, kappa, lambda, L234A L235A, κλ-body: common heavy chain, kappa anti-IL2Rγ light chain (AM3), lambda anti-HER2 light chain (N2-19); also called AM3N2-19/N) heavy: not shown light 1: DIQMTQSPSTLSASVGDTVTITCRASHYITTWLAWYQQKPGKAPKLLIYDVSSLESGVPSRFRGRGSGTEFTLTISSLQPDDFATYYCQQYESYSPTFGQGTKVEIKRTVAAPSVFIFPPSDEQLKSGTASVVCLLNNFYPREAKVQWKVDNALQSGNSQESVTEQDSKDSTYSLSSTLTLSKADYEKHKVYACEVTHQGLSSPVTKSFNRGEC light 2: QSVLTQPPSVSGAPGQRVTISCTGSSSNIENTHTVHWYQQLPGTAPKLLIYDASIRPSGVPDRFSGSKSGTSASLAITGLQAEDEADYYCQSYDWLRGAQVFGGGTKLTVLGQPKAAPSVTLFPPSSEELQANKATLVCLISDFYPGAVTVAWKADSSPVKAGVETTTPSKQSNNKYAASSYLSLTPEQWKSHRSYSCQVTHEGSTVEKTVAPTECS	binds	binds
AM7N2-19 (bispecific antibody, human IgG1, kappa, lambda, L234A L235A, κλ-body: common heavy chain, kappa anti-IL2Rγ light chain (AM7), lambda anti-HER2 light chain (N2-19); also called AM7N2-19/N) heavy: not shown light 1: DIQLTQSPSFLSASVGDRVTITCRASQDIGIELAWYQQKPGKAPKLLIYFESHLQSGVPSRFSGSGSGTEFTLTISSLQPEDFATYYCQQIRIDPTFGQGTKVEIKRTVAAPSVFIFPPSDEQLKSGTASVVCLLNNFYPREAKVQWKVDNALQSGNSQESVTEQDSKDSTYSLSSTLTLSKADYEKHKVYACEVTHQGLSSPVTKSFNRGEC light 2: QSVLTQPPSVSGAPGQRVTISCTGSSSNIENTHTVHWYQQLPGTAPKLLIYDASIRPSGVPDRFSGSKSGTSASLAITGLQAEDEADYYCQSYDWLRGAQVFGGGTKLTVLGQPKAAPSVTLFPPSSEELQANKATLVCLISDFYPGAVTVAWKADSSPVKAGVETTTPSKQSNNKYAASSYLSLTPEQWKSHRSYSCQVTHEGSTVEKTVAPTECS	binds	binds
AM2N2-19 (bispecific antibody, human IgG1, kappa, lambda, L234A L235A, κλ-body: common heavy chain, kappa anti-IL2Rγ light chain (AM2), lambda anti-HER2 light chain (N2-19); also called AM2N2-19/N) heavy: not shown light 1: DIQLTQSPSFLSASVGDRVTITCRASQTIDAPLRWYQQKPGKAPKLLIYLTSSLQSGVPSRFSGSGSGTEFTLTISSLQPEDFATYYCQQGYAAGPSTFGQGTKVEIKRTVAAPSVFIFPPSDEQLKSGTASVVCLLNNFYPREAKVQWKVDNALQSGNSQESVTEQDSKDSTYSLSSTLTLSKADYEKHKVYACEVTHQGLSSPVTKSFNRGEC light 2: QSVLTQPPSVSGAPGQRVTISCTGSSSNIENTHTVHWYQQLPGTAPKLLIYDASIRPSGVPDRFSGSKSGTSASLAITGLQAEDEADYYCQSYDWLRGAQVFGGGTKLTVLGQPKAAPSVTLFPPSSEELQANKATLVCLISDFYPGAVTVAWKADSSPVKAGVETTTPSKQSNNKYAASSYLSLTPEQWKSHRSYSCQVTHEGSTVEKTVAPTECS	binds	binds
AM5O41 (bispecific antibody, human IgG1, kappa, lambda, L234A L235A, κλ-body: common heavy chain, kappa anti-IL2Rγ light chain (AM5), lambda anti-MSLN light chain (O41); also called AM5O41/N) heavy: not shown light 1: not shown light 2: SYVLTQPPSVSVAPGKTARITCGGNKIGHRAVHWYQQKPGQAPVLVIYYTYERPSGIPERFSGSNSGNTATLTISRVEAGDEADYYCQVWDWYSEGGVVFGGGTKLTVLGQPKAAPSVTLFPPSSEELQANKATLVCLISDFYPGAVTVAWKADSSPVKAGVETTTPSKQSNNKYAASSYLSLTPEQWKSHRSYSCQVTHEGSTVEKTVAPTECS	binds	–
AM5O35 (bispecific antibody, human IgG1, kappa, lambda, L234A L235A, κλ-body: common heavy chain, kappa anti-IL2Rγ light chain (AM5), lambda anti-MSLN light chain (O35); also called AM5O35/N) heavy: not shown light 1: not shown light 2: QPVLTQPVSLSASPGASVSLTCTLRSDIRVRDYRIFWYQQKPGSPPQYLLRYKTDSDKQQGSGVPSRFSGSKDASANAGILLISGLQSEDEADYYCMIWHRTTGTSLVFGGGTKLTVLGQPKAAPSVTLFPPSSEELQANKATLVCLISDFYPGAVTVAWKADSSPVKAGVETTTPSKQSNNKYAASSYLSLTPEQWKSHRSYSCQVTHEGSTVEKTVAPTECS	binds	–

The next lines start with the values.

binding result (human recombinant IL-2Rγ)	binding result (human recombinant HER2)	Binder
binds	binds	AM1N2-19 (bispecific antibody, human IgG1, kappa, lambda, L234A L235A, κλ-body: common heavy chain, kappa anti-IL2Rγ light chain (AM1), lambda anti-HER2 light chain (N2-19); also called AM1N2-19/N) heavy: not shown light 1: DIQMTQSPSSLSASVGDRVTITCRASQSIYYYLNWYQQKPGKAPKLLIYDASALQSGVPSRFSGSGSGTDFTLTISSLQPEDFATYYCQQIDFTAGSITFGQGTKVEIKRTVAAPSVFIFPPSDEQLKSGTASVVCLLNNFYPREAKVQWKVDNALQSGNSQESVTEQDSKDSTYSLSSTLTLSKADYEKHKVYACEVTHQGLSSPVTKSFNRGEC light 2: QSVLTQPPSVSGAPGQRVTISCTGSSSNIENTHTVHWYQQLPGTAPKLLIYDASIRPSGVPDRFSGSKSGTSASLAITGLQAEDEADYYCQSYDWLRGAQVFGGGTKLTVLGQPKAAPSVTLFPPSSEELQANKATLVCLISDFYPGAVTVAWKADSSPVKAGVETTTPSKQSNNKYAASSYLSLTPEQWKSHRSYSCQVTHEGSTVEKTVAPTECS
binds	binds	AM6N2-19 (bispecific antibody, human IgG1, kappa, lambda, L234A L235A, κλ-body: common heavy chain, kappa anti-IL2Rγ light chain (AM6), lambda anti-HER2 light chain (N2-19); also called AM6N2-19/N) heavy: not shown light 1: not shown light 2: QSVLTQPPSVSGAPGQRVTISCTGSSSNIENTHTVHWYQQLPGTAPKLLIYDASIRPSGVPDRFSGSKSGTSASLAITGLQAEDEADYYCQSYDWLRGAQVFGGGTKLTVLGQPKAAPSVTLFPPSSEELQANKATLVCLISDFYPGAVTVAWKADSSPVKAGVETTTPSKQSNNKYAASSYLSLTPEQWKSHRSYSCQVTHEGSTVEKTVAPTECS
binds	binds	AM4N2-19 (bispecific antibody, human IgG1, kappa, lambda, L234A L235A, κλ-body: common heavy chain, kappa anti-IL2Rγ light chain (AM4), lambda anti-HER2 light chain (N2-19); also called AM4N2-19/N) heavy: not shown light 1: DIQMTQSPSTLSASVGDRVTITCRASQTIYGPLNWYQQKPGKAPKLLIYSTSYLESGVPSRFSGSGSGTEFTLTISSLQPDDFATYYCQQAGYASAPTFGQGTKVEIKRTVAAPSVFIFPPSDEQLKSGTASVVCLLNNFYPREAKVQWKVDNALQSGNSQESVTEQDSKDSTYSLSSTLTLSKADYEKHKVYACEVTHQGLSSPVTKSFNRGEC light 2: QSVLTQPPSVSGAPGQRVTISCTGSSSNIENTHTVHWYQQLPGTAPKLLIYDASIRPSGVPDRFSGSKSGTSASLAITGLQAEDEADYYCQSYDWLRGAQVFGGGTKLTVLGQPKAAPSVTLFPPSSEELQANKATLVCLISDFYPGAVTVAWKADSSPVKAGVETTTPSKQSNNKYAASSYLSLTPEQWKSHRSYSCQVTHEGSTVEKTVAPTECS
binds	–	AM5O38 (bispecific antibody, human IgG1, kappa, lambda, L234A L235A, κλ-body: common heavy chain, kappa anti-IL2Rγ light chain (AM5), lambda anti-MSLN light chain (O38); also called AM5O38/N) heavy: not shown light 1: not shown light 2: QPVLTQPASLSASPGASASLTCTLRSGINVRDYRIFWYQQKPGSPPQYLLRYKSASDKQQGSGVPSRFSGSKDASANAGILLISGLQSEDEADYYCMIWHHDSEGHAFVFGGGTKLTVLGQPKAAPSVTLFPPSSEELQANKATLVCLISDFYPGAVTVAWKADSSPVKAGVETTTPSKQSNNKYAASSYLSLTPEQWKSHRSYSCQVTHEGSTVEKTVAPTECS
